Experimental data from patent US20130116412.

What was measured:
[1] = system: T1, Ac-GFPG-NH2
T1 sequence: GFPG

[2] = system: GST-(PPG)5, fusion of glutathione S-transferase and (Pro-Pro-Gly)5 with an intervening thrombin cleavage site
Sequence of GST-(PPG)5, fusion of glutathione S-transferase and (Pro-Pro-Gly)5 with an intervening thrombin cleavage site (chain, as listed by the source): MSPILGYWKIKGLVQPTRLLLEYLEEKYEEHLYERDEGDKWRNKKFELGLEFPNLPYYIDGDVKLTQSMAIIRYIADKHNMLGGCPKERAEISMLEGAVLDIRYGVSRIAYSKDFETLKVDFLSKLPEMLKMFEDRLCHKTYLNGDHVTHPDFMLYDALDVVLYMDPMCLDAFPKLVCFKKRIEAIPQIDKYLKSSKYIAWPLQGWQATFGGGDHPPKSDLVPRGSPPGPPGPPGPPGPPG

Substance: human prolyl-4-hydroxylase (P4H), full-length tetramer produced from plasmid pBK1.PDI1.P4H7
- in vitro hydroxylation of proline, MALDI-TOF / LC-MS [1]: The positive control showed that the proline residue in Ac-GFPG-NH2 was hydroxylated.
- in vitro hydroxylation of proline residues, MALDI-TOF of the cleaved peptide [2]: up to 3 hydroxyproline residues were produced in the (PPG)5 peptide after incubation with P4H
